Patent US20050064518A1 (PURDUE PHARMA L P, published 2005)

T1: O772P 3-repeat recombinant protein (human)
T1 construct: Repeats are residues 14-452 of the entry
T1 chain: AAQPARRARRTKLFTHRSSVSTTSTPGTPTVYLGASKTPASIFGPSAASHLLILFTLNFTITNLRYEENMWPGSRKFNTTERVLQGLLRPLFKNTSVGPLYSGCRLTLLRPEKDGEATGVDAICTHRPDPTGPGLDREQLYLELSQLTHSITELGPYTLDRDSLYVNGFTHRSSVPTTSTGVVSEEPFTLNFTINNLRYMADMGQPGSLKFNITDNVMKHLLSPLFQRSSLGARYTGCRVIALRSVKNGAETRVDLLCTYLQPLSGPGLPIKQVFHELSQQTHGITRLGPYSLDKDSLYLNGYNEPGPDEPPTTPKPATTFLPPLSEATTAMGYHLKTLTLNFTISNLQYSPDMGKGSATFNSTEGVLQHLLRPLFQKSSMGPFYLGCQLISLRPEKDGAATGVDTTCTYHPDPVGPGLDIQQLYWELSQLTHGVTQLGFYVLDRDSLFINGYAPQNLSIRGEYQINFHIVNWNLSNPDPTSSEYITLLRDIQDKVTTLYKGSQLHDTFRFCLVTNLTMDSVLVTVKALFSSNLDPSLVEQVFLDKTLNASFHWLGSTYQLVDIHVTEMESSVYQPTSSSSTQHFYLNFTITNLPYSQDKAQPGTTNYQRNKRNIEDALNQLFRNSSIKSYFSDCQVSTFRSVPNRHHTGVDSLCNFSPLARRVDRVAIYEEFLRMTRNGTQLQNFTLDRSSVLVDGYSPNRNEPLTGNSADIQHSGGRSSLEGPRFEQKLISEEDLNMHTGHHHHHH

B1: monoclonal antibody 117.1 (antibody, V domains shown)
VH: QVTLKESGPGILQPSQTLSLTCSFSGFSLSTPGMGVGWIRQPSGKGLEWLAHIWWDDFKRDNPALKSRLTISKDTSSSQVFLKIASVDTADTATYYCVRVDGNFLSWYFDVWGAGTTVTVSS
VL: DAVMTQTPLSLPVSLGDQASISCRSSQSLVHSNGNTYLHWYLQKPGQSPKLLIYKVSNRFSGVPDRFSGSGSGTDFTLRISRVEAEDLGVYFCSQSRYVPWTFGGGTKLEIK
notes: Murine hybridoma antibody
B2: monoclonal antibody 501.1 (antibody, V domains shown)
VH: QIQLVQSGPELKKPGETVQISCKASGYIFTDYGMNWVKQAPGKGLKWMGCINTYTGETIYSDDFRGRFAISLETSASTAFIQINNLKNEDAATYFCARGNYRDAIDYWGQGTSVTVSS
VL: DIKMTQSPSSIYASLGERVTITCKASQDIKSYLSWYQQKPWKSPKTLIYYATTLADGVPSRFSGSGSGQDYSLIINSLESDDIATYFCLHHDESPFTFGSGTKLEI
notes: Murine hybridoma antibody
B3: monoclonal antibody 368.1 (antibody, V domains shown)
VH: EVQLQQSGPELVRTGASVKISCKASGYSFTGFYMHWVKQSLGKSLEWIGYVSCYTGATTYTQKFKGKATFTVDTSSSTAYMQLNSLTSEDSAVYYCAREGDYYSMDFWGQGTSVTVSS
VL: DVVMTQTPLSLPVSLGDQASISCRSSQSLERTNGNTYLHWYLQKPGQSPKLLIYKVSSRFSGVPDRFSGSGSGTDFTLKISRVEAEDLGIYFCSQTTHGPPTCGGGTKLEIK
notes: Murine hybridoma antibody

Molecular target: T1, O772P 3-repeat recombinant protein
Test: ELISA competition, plate-bound O772P 3-repeat; no competitor
Description: (§1) On the next day, the plates were washed with 200 μl 1×PBST (1× phosphate-buffered saline (PBS), 0.05% Tween 20) three times and blocked with 100 μl of 1×PBST containing 1% bovine serum albumin (BSA) for 2 hours at 37° C. […] After 1 hour incubation at 37° C., the plates were then washed with 1×PBST three times. For signal detection, 100 μl of HRP-conjugated sheep anti-mouse IgG (1:2000 dilution into 1×PBST+1% BSA, Amersham Biosciences) was added to each well and incubated for 1 hour at 37° C. The plates were washed again with 1×PBST three times. Finally, 100 μl¹ of a mixture of TMB substrate and H₂O₂ (1:1 ratio, KPL) was added into each well and the absorbance was measured at 405 nm with a plate reader (Molecular Devices Corp., Sunnyvale, Calif.). The assay was done in triplicate for each selected antibody and average values were calculated and presented. The percent inhibition compared to no competition was calculated for individual antibodies based on average values. Controls for blank and individual reagents were also included in each experiment.

Binder | absorbance
B1 | 0.619 OD
B2 | 0.856 OD
B3 | 1.29 OD

The binders below were run against T2, CA 125/O772P on OVCAR-3 cells (human, UniProt Q8WXI7 1-14507) (assay: flow cytometry, OVCAR-3 cells; Ab 2 µg/ml).
T2 construct: whole, on cells

Binder | % positive cells
B1 | 93%
B2 | 95%
B3 | 89%

Molecular target: T1, O772P 3-repeat recombinant protein
Test: ELISA competition, plate-bound O772P 3-repeat; competitor shed CA 125/O772P
Description: as §1

Binder | absorbance w/shed CA 125/O772P competitor (25-fold w/w excess)
B1 | 0.554 OD
B2 | 0.735 OD
B3 | 1.33 OD
